Biological target: the molecule itself
Assay: crystal structure

B1: chicken cone PDE6 GAFab regulatory domain (residues 42–458 of the chicken cone PDE6C catalytic subunit) (domain or fragment, UniProt P52731 42-458, looked up)
chain: GDVKEGVSFKDMSRLEECNILFELLTEIQDEAGSMEKIVHKTLQRLSQLLAADRCSMFICRSRNGIPEVATRLLNVTPTSKFEDNLVNPDKETVFPLDIGIAGWVAHTKKFFNIPDVKKNNHFSDYLDKKTGYTTVNMMAIPITQGKEVLAVVMALNKLNASEFSKEDEEVFKKYLNFISLVLRNHHTSYLYNIESRRSQMLLWSANKVFEELTDIERQFHKALYTIRMYLNCERYSVGLLDMTKEKEFYDEWPIRLGEAEPYKGPKTPDGREVNFYKIIDYILHGKEEIKVIPTPPADHWCLISGLPTYVAENGFICNMMNAPADEYFTFQKGPVDETGWVIKNVLSLPIVNKKEEIVGVATFYNRKDGKPFDEYDEQIIETLTQFLGWSVLNTDTYDKMNKLENRKDIAQEMLMY
binding result: binds

— article PMC7572642 (Journal of molecular biology, 2020)
